One experiment deals with IL-22R1 phosphorylation. Put plainly: IP/WB of IL-22R1 phosphorylation in healthy keratinocytes (IL-22). In kind it is cell-based, human. The following applies: IL-22 10 min, no peptide, n = 3. The protocol: (§1) Figure 5 KIR-ESS peptide inhibits IL-22-induced phosphorylation of STAT3 and Erk in healthy and SCC-derived keratinocytes (A) Protein extracts obtained from healthy keratinocytes (n = 3) pre-treated or not with 15 μM (left panel) or 75 μM (right panel), KIR, KIR-ESS and control (Ctrl1 or Ctrl2) peptides, and, then, stimulated or not with IL-22 for 20 min, were subjected to WB analysis to detect STAT3 (Tyr705), Erk and MEK phosphorylation. Filters were probed with anti-STAT3, -Erk and –MEK Abs (top). (B) Protein extracts obtained from healthy keratinocytes (n = 3) pre-treated or not with 75 μM KIR-ESS and control (Ctrl1) peptides, and, then, stimulated or not with IL-22 for 10 min, were subjected to immunoprecipitation for IL-22R1 and Jak1, and then analysed by WB to detect phosphorylated and unphosphorylated forms of the proteins. (C) Unphosphorylated and phosphorylated forms of STAT1 (Tyr701) and STAT3 (Tyr705) were monitored in keratinocytes treated with IFN-γ for 15 min by WB analysis (bottom). In all experimental groups, filters were stripped and re-probed with β-actin Ab. (D) Protein extracts were obtained from CAL27 (left panel) or CAL33 (right panel) lines treated or not with 75 μM peptides in presence of IL-22 or IFN-γ. WB was performed to detect basal and phosphorylated STAT1, STAT3 and Erk. […]

Experiment [1] relates to STAT3 phosphorylation in healthy keratinocytes. Put plainly: Western blot of STAT3 phosphorylation in healthy keratinocytes (IL-22). In kind it is cell-based, human. The settings on record: IL-22 time course, no peptide, n = 3. The protocol:
as §1, with “[…],” for “stimulated or not with IL-22 for 20 min,”, “Erk. D.I. ratio indicates the densitometric intensity of phosphorylated/unphosphorylated target protein.” for “Erk.”
A general note: A western blot detects proteins with antibodies after separation by electrophoresis.

B1: IL-22: cytokine stimulus, R&D Systems (protein, UniProt Q9GZX6 34-179, looked up)
Interleukin-22: APISSHCRLDKSNFQQPYITNRTFMLAKEASLADNNTDVRLIGEKLFHGVSMSERCYLMKQVLNFTLEEVLFPQSDRFQPYMQEVVPFLARLSNRLSTCHIEGDDLHIQRNVQKLKDTVKKLGESGEIKAIGELDLLFMSLRNACI
As to B1, the IL-22R1 phosphorylation induced entry with IL-22R1 phosphorylation was “induced molecular cascade implicating phosphorylation of IL-22R1, Tyk2 and Jak1”. Besides, in experiment [1], the STAT3 activation entry was “culminated with STAT3, MEK1/2 and Erk1/2 activation”.

The values above are taken from paper PMC5421877, “SOCS3 inhibits the pathological effects of IL-22 in non-melanoma skin tumor-derived keratinocytes” (Oncotarget, 2017).
